Measured values as given in article PMC9886945 (Nature Communications, 2023).

How the values were obtained:
Assay in all cases: cryo-EM structure
[1] = molecular target: Mycobacterium tuberculosis RNA polymerase β' subunit (M. tuberculosis, UniProt P9WGY7); conditions: both partners purified
[2] = molecular target: the molecule itself
[3] = molecular target: T1, Mycobacterium tuberculosis RNA polymerase β subunit (M. tuberculosis, UniProt P9WGY9); conditions: both partners purified
T1 sequence: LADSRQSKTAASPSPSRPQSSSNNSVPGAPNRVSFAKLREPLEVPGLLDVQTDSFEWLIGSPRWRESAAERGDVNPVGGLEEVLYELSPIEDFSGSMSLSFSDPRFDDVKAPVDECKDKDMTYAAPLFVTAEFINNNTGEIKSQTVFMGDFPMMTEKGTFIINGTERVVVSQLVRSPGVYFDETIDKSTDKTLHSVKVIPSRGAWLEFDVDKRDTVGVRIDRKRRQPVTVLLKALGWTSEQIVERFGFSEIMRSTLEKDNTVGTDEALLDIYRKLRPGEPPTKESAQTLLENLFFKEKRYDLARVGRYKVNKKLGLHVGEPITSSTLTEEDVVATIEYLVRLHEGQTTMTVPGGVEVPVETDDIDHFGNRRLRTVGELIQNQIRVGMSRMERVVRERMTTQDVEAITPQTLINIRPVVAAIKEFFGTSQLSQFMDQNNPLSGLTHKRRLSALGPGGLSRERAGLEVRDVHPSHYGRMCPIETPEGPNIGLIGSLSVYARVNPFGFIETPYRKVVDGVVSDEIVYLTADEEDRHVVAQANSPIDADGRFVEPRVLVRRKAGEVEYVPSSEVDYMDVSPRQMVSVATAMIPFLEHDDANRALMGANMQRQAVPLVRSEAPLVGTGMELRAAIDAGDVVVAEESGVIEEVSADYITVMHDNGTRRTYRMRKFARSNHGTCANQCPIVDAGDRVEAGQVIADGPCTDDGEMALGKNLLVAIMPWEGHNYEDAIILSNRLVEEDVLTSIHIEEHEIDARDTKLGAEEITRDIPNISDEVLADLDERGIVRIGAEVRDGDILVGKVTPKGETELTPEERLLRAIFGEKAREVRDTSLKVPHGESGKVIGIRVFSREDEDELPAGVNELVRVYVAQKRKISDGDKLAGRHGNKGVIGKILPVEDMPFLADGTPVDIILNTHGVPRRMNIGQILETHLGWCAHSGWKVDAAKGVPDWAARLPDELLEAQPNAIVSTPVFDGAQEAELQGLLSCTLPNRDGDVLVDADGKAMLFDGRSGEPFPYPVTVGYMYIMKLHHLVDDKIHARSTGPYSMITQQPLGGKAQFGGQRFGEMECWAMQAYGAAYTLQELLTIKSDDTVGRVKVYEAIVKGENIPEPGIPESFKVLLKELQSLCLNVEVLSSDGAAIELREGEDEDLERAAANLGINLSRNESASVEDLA

Measured: binding result

Mycobacterium tuberculosis RNA polymerase β' subunit, sequence (P9WGY7 whole entry): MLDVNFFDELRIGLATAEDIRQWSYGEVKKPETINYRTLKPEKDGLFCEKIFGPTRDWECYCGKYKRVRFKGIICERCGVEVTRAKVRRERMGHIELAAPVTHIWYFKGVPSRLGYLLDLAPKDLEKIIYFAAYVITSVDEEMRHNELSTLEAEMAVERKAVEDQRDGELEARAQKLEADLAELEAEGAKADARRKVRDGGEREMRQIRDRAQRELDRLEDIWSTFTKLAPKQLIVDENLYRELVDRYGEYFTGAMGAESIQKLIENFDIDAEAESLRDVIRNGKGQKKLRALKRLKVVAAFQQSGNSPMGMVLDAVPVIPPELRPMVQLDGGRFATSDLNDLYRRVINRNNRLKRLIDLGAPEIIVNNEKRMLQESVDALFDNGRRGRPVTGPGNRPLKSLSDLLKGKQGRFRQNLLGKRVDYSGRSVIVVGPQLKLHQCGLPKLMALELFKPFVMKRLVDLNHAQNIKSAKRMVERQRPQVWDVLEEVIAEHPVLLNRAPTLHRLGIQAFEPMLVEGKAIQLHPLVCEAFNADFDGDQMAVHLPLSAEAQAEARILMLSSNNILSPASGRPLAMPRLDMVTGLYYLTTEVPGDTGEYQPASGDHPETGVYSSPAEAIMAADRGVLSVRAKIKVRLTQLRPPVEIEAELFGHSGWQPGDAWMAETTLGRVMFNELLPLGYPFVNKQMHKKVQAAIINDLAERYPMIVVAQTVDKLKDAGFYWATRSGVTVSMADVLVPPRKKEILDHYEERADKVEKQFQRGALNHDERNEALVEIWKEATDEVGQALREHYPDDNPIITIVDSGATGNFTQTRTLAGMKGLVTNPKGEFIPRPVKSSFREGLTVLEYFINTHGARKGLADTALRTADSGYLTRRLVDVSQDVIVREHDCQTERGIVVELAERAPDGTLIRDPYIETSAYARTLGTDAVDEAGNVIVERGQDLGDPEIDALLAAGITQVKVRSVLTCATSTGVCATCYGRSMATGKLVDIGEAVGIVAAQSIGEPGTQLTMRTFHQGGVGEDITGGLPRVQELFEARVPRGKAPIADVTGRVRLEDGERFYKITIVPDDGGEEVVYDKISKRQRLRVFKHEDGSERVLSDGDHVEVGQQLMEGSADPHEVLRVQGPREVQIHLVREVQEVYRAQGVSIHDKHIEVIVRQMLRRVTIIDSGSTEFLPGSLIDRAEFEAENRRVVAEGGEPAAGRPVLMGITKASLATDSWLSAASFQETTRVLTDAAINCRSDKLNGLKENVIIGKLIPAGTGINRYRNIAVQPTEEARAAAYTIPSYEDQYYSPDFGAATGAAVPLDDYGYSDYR

B1: Mycobacterium tuberculosis σ^B subunit (natural protein)
chain: MADAPTRATTSRVDSDLDAQSPAADLVRVYLNGIGKTALLNAAGEVELAKRIEAGLYAEHLLETRKRLGENRKRDLAAVVRDGEAARRHLLEANLRLVVSLAKRYTGRGMPLLDLIQEGNLGLIRAMEKFDYTKGFKFSTYATWWIRQAITRGMADQSRTIRLPVHLVEQVNKLARIKREMHQHLGREATDEELAAESGIPIDKINDLLEHSRDPVSLDMPVGSEEEAPLGDFIEDAEAMSAENAVIAELLHTDIRSVLATLDEREHQVIRLRFGLDDGQPRTLDQIGKLFGLSRERVRQIERDVMSKLRHGERADRLRSYAS
binds: all assays above
